In article PMC4230784 (Molecular Biology of the Cell, 2014):

Target: flag-TBC1D9B, full length, wild type (human, UniProt Q66K14-1 1-1250)
Experiment: co-IP

Sequence of flag-TBC1D9B, full length, wild type (Q66K14 whole entry): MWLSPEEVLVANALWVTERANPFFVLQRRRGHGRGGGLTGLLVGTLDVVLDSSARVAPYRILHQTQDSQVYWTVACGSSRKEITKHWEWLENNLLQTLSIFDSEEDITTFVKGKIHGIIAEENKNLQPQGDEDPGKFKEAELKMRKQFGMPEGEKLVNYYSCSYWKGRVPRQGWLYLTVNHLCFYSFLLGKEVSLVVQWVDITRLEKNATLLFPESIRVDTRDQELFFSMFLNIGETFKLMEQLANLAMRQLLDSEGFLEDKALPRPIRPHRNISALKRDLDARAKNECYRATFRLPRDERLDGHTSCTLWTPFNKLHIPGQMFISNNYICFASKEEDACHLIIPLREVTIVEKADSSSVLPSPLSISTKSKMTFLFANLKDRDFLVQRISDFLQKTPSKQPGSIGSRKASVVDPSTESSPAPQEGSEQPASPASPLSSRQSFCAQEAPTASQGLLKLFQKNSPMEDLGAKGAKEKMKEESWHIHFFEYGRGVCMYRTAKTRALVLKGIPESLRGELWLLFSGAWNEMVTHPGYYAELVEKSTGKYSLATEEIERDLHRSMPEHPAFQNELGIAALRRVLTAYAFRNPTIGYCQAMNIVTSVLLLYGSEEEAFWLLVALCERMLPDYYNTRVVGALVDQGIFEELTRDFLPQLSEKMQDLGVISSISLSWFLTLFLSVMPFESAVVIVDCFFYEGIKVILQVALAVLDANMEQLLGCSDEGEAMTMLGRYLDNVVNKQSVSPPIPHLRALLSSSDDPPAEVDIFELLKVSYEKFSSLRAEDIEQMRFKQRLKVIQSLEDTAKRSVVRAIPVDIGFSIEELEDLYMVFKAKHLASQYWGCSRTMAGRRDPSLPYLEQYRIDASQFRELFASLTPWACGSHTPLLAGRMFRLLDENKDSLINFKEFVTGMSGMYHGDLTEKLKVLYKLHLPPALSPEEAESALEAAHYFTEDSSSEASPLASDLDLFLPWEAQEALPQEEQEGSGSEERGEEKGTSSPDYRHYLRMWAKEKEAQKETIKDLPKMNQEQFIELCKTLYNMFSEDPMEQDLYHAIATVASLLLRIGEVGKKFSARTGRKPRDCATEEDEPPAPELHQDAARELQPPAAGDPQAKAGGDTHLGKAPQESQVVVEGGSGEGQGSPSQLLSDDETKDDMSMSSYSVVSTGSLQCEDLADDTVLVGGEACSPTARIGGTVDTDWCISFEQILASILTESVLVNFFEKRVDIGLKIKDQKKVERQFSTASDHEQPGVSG

B1: GFP-Rab11aQ70L (natural protein, UniProt P62491 1-216, looked up)
chain: MGTRDDEYDYLFKVVLIGDSGVGKSNLLSRFTRNEFNLESKSTIGVEFATRSIQVDGKTIKAQIWDTAGLERYRAITSAYYRGAVGALLVYDIAKHLTYENVERWLKELRDHADSNIVIMLVGNKSDLRHLRAVPTDEARAFAEKNGLSFIETSALDSTNVEAAFQTILTEIYRIVSQKQMSDRRENDMSPSNNVVPIHVPPTTENKPKVQCCQNI
B1 was tested, and the “fold coimmunoprecipitated against Rab11a-WT or Rab11a-SN” value was roughly 5 fold.
